# Laboratory results published in patent publication US20110059097A1 (UNIVERSITY HEALTH NETWORK, published 2011).
# T1: murine MFAP4 (microfibrillar-associated protein-4) on mouse DNT cells (murine, UniProt Q9D1H9 23-257)
# T1 sequence: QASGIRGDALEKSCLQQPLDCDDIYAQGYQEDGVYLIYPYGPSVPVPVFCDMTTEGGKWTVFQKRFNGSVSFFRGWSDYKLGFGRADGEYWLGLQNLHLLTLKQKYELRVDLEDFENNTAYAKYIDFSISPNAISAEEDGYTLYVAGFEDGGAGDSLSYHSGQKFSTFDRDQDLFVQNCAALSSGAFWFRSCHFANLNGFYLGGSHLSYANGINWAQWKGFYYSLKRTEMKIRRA
# B1: G1 monoclonal antibody (antibody, V domains shown)
# VH: EVKLVESGGGLVQPGRSLKLSCAASGFPFSNYGMAWVRQAPTKGLAWVATISYDGRSTYYRDSVKGRFTISRNNAKSTLYLQMDSLRSEDTATYYCVRHELPEDHWGQGVMVTVSS
# VL: DIVMTQSPFSLAVSEGEMVTINCKSGQSLLSSGNQKNYLAWYQQKPGQSPKLLIYYSSTRQSGVPDRFIGSGSGTDFTLTISDVQAEDLADYYCLQHYSSPFTFGSGTKLEIK
# notes: Hybridoma monoclonal antibody raised against cell surface molecules of tumor-reactive mouse DNT cells; also called G1 mAb; mAb (clone: G1)
# Molecular target: T1, murine MFAP4 (microfibrillar-associated …)
# Experiment: flow cytometry on mouse DNT cell clones (target later identified as MFAP4)
binder,measurement,value
B1,binding result,binds
